In patent US20240132548A1 (Janssen / Centocor, published 2024):

Key:
Experiment in all cases: BLI (Octet), biotinylated mAb on streptavidin sensors, culture supernatant
[1] = target: T1, RSV180917 (I152M + K226M + D486N + S215P + L203I + P101Q + D489Y + T357R + N371Y) (respiratory syncytial virus, subgroup B …, UniProt O36634 26-109)
T1 construct: also called RSV181917
T1 chain 1: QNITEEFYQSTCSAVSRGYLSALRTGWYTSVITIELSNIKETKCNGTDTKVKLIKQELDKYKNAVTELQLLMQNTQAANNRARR
T1 chain 2: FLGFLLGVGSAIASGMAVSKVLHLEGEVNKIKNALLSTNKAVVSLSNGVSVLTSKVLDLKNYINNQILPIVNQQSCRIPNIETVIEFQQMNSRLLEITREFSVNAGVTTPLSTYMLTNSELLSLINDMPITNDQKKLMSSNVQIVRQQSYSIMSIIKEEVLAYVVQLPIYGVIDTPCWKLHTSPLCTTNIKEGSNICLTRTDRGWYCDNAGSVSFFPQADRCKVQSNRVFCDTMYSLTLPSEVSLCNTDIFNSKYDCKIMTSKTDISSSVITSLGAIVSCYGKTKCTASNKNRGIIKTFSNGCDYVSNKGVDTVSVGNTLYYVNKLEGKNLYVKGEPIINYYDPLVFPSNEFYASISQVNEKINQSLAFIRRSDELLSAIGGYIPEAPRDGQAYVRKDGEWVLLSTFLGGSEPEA
Description: (§1) Quantitative Octet (BioLayer Interferometry) was used for measuring protein concentration in the supernatants at day of harvest and after 7 or 30 days storage at 4° C. CR9501 (an antibody specifically recognizing pre-fusion RSV F protein, which comprises the variable regions of the antibodies 58C5 as described in WO2012/006596) and CR9506 (recognizing pre-fusion and post-fusion RSV F protein and comprising a heavy chain variable region comprising SEQ ID NO: 21, and a light chain variable region comprising SEQ ID NO: 22) were biotinylated by standard protocols and immobilized on Streptavidin biosensors (ForteBio, Portsmouth, UK).
(§2) Afterwards, the coated biosensors were blocked in mock cell culture supernatant. A quantitative experiment was performed as follows: temperature 30° C., shaking speed 1000 rpm, time of the assay 300 sec. The concentration of the protein was calculated using a standard curve. The standard curve was prepared for each coated antibody CR9501 and CR9506 using the pre-fusion RSV FA protein (SEQ ID NO: 19; described previously in WO17174568) diluted in mock medium. […] The data analysis was done using the ForteBio Data Analysis 10.0.1.6 software (ForteBio).

[2] = target: T2, RSV181180 (I152M + K226M + D486N + S215P + P101Q) (respiratory syncytial virus, subgroup B …, UniProt O36634 26-109; P13843 137-540)
T2 chain 1: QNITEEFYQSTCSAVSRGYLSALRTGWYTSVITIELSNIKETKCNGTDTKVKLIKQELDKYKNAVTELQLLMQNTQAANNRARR
T2 chain 2: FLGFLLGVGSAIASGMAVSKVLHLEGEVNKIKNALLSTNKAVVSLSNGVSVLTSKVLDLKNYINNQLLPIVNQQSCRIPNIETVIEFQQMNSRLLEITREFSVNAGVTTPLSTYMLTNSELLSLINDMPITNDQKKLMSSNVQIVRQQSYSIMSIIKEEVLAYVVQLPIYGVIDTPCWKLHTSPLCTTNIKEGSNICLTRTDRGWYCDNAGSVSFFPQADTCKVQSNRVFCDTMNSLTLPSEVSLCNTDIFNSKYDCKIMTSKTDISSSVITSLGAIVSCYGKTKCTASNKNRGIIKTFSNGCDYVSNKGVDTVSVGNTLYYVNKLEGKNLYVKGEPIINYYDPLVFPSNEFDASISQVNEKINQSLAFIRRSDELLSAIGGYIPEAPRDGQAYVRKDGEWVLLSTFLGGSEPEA
Description: as §1, §2

[3] = target: T3, RSV180907 (tag-free, RSV FB signal peptide) (respiratory syncytial virus, subgroup B …, UniProt O36634 26-109; P13843 137-540)
T3 construct: Same mature protein as RSV180913, expressed with the RSV B signal peptide; measured in culture supernatant, furin co-transfected
T3 chain 1: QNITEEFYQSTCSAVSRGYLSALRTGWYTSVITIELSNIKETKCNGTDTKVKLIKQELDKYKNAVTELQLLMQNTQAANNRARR
T3 chain 2: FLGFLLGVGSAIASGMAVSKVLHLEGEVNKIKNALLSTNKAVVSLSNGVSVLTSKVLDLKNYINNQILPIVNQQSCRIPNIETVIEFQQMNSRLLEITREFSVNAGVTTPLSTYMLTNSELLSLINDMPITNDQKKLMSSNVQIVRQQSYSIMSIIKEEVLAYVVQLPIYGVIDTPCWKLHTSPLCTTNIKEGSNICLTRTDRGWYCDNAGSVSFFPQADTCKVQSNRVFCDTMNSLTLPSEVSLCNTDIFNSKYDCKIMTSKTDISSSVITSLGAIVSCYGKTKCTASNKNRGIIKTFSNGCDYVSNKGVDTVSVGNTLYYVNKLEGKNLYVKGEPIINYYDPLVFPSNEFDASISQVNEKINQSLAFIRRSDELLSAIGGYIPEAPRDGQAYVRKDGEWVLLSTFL
Description: as §1, §2

Measured: binding result

B1: CR9506 (antibody, human IgG1, kappa, V domains shown)
VH: EVQLVQSGAEVKKPGSSVKVSCKASGGTFSRSLITWVRQAPGQGLEWMGEISLVFGSAKNAQKFQGRVTITADESTSTAHMEMISLKHEDTAVYYCAAHQYGSGTHNNFWDESELRFDLWGQGTLVTVSS
VL: DIVMTQSPSSLSASVGDRVTIACRASQSIGTYLNWYQQKPGKAPKLLIYAASSLQSGVPSRFSGSGSGTHFTLAISSLQAEDFATYSCQQSYTIPYTFGQGTKLEIKR
notes: Biotinylated for Octet; coated and also used HRP-labelled as detection antibody in the ELISA
binds: all assays above
